{"source": "paper doi:10.1101/632075", "about": "“Determinants of FtsZ C-terminal linker-dependent regulation of cell wall metabolism in Caulobacter crescentus” (bioRxiv, 2019)", "molecular_target": "the molecule itself", "assay": "negative-stain transmission electron microscopy of polymers; 4 µM protein with 2 mM GTP for 16 minutes in 50 mM HEPES-KOH pH 7.2, 300 mM KCl, 10 mM MgCl2, 0.1 mM EDTA; spotted on carbon coated grids, uranyl formate stain"}
{"protein": "Escherichia coli FtsZ (natural protein, E. coli, UniProt P0A9A6 1-383, looked up, FtsZ of Escherichia coli, wild type; No tag is named; also called EcFtsZ; source: E. coli Rosetta(DE3)pLysS, pET21 vector, purified (anion exchange, ammonium sulfate precipitation, SEC)) MFEPMELTNDAVIKVIGVGGGGGNAVEHMVRERIEGVEFFAVNTDAQALRKTAVGQTIQIGSGITKGLGAGANPEVGRNAADEDRDALRAALEGADMVFIAAGMGGGTGTGAAPVVAEVAKDLGILTVAVVTKPFNFEGKKRMAFAEQGITELSKHVDSLITIPNDKLLKVLGRGISLLDAFGAANDVLKGAVQGIAELITRPGLMNVDFADVRTVMSEMGYAMMGSGVASGEDRAEEAAEMAISSPLLEDIDLSGARGVLVNITAGFDLRLDEFETVGNTIRAFASDNATVVIGTSLDPDMNDELRVTVVATGIGMDKRPEITLVTNKQVQQPVMDRYQQHGMAPLTQEQKPVAKVVNDNAPQTAKEPDYLDIPAFLRKQAD", "values": [{"measurement": "binding result", "result": "binds"}]}
{"protein": "Caulobacter crescentus FtsZ (natural protein, C. crescentus, UniProt B8H080 1-508, looked up, FtsZ of Caulobacter crescentus, wild type; regions: GTPase domain, C-terminal linker (CTL), C-terminal conserved peptide (CTC); No tag is named; also called CcFtsZ; WT FtsZ; source: E. coli Rosetta(DE3)pLysS, pET21 vector, purified (anion exchange, ammonium sulfate precipitation, SEC)) MAISLSAPRTTELKPRIVVFGVGGAGGNAVNNMIEAGLEGVEFVVANTDAQQLQFAKTDRRIQLGVQITQGLGAGAHPEVGMSAAEESFPEIGEHLDGAHMVFITAGMGGGTGTGAAPIIAKCARERGILTVGVVTKPFHFEGRHRMRLADSGIQELQRYVDTLIVIPNQNLFRVANERTTFAEAFGMADQVLHSGVRSITDLMVLPGLINLDFADVRTVMTEMGKAMMGTGEGTGEDRALMAAQNAIANPLLDEVSLKGAKAVLVNVTGGMDMTLLEVDEAANAISDQVDPEANIIFGAAFDPSLEGVIRVSVVATGMDGASIAQIEPKPVSRNISAAPLIAETSRPAPQPEPARPTARYEAARPAERPVAFAPEPAPEPEIVMSAPQPEPEAELYYDEPTVAEEPRVSAAPARSVNRIVDPLVDDVAEEPLFPENNYYEERRPQKQGGFFSMFGGGRQRYEQQASAPQAQARSAQSARPQLQPIETPQADDAEDLEIPSFLRRLAN", "values": [{"measurement": "binding result", "result": "binds"}]}
